Molecular target: T1, HEN1 wt (Arabidopsis thaliana, UniProt Q9C5Q8 1-942)
T1 sequence: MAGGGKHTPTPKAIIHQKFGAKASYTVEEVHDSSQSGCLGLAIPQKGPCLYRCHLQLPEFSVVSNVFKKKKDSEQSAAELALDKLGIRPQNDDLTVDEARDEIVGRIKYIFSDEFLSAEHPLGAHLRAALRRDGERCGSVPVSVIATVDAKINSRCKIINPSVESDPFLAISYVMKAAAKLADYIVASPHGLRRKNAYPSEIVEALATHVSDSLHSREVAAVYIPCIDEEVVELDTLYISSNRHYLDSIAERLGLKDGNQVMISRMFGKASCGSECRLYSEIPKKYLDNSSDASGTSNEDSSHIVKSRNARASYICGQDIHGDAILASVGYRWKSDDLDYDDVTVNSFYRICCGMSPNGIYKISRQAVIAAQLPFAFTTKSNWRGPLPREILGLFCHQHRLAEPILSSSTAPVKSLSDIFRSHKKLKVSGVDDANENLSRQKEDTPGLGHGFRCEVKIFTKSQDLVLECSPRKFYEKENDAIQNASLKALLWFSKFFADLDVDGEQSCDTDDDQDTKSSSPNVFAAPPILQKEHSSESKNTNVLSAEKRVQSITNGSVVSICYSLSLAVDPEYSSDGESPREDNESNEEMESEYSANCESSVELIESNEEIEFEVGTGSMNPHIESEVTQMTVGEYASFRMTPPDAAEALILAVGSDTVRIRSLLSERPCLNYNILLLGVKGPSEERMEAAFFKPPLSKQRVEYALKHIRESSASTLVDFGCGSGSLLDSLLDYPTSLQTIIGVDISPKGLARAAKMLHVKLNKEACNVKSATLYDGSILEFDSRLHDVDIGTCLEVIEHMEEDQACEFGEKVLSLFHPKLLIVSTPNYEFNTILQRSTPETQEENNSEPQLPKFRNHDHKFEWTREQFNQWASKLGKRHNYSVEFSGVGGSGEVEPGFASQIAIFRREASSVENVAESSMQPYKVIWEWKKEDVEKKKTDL
Assay: EMSA

B1: miR173/miR173* (dsRNA)
RNA 1: UUCGCUUGCAGAGAGAAAUCAC
RNA 2: GAUUCUCUGUGUAAGCGAAAG
Kd: 0.32 ± 0.03 nM
